Experimental data reported in PMC11922746, “SPO11 dimers are sufficient to catalyse DNA double-strand breaks in vitro” (Nature, 2024).

B1: His–Flag-tagged Mus musculus TOP6BL (natural protein, UniProt J3QMY9 1-579, looked up)
chain: MERTALAVCEILRYLIIHWKCEAGTAKGTLLDGQLVISIEALRSKHLPDSLHCIITIASTRSVYGGLNFKKFLQEIQPALPRLSAKLALASEEGGRSQDASGIAPCQVTFEVDENSQSLMTDCLVIKHFLRKIIIVHHKLKFSFSVAVNGTLSAETFGAENEPTLRLDNGVTLVVGFQRYVSKPKLNWSEAHCSRIHPVLGHPAPLFIPDAKADTGLLGELTLTPAAALCPSPKGFSSQLCRISSVSIFLYGPLGLPLLSSDQDQPSTAVFRDTSYFIDWKKYNLFMVPNLDLNLDTQSVLPDVNYKAESPEGNQSQNMNAQGPALLLFLFVDFQSDVPVQQAKIWGLHTLLTAHLSAILSESRSTVQQSIQSAVDQVWQLYHHDAKTQQRLQASLSVAVNSIMSVLTGSTRSSFRKTCLQALEAADTQEFGVKLHRIFYDITQHQFLKHCSCDTEQHLTPEKNISAQNTKDQHKNIAQEFPEESIGQAENKRPKRGSPNHGREESRVLGSARDRSPPKSATRDRELTEVSLTARGSQTQAAHGRAQAAEAASPAGGLEDLWLQEVSNLSEWLNPGHRS
notes: TOP6BL (topo VIB-like subunit), Mus musculus; also called His–mTOP6BL–Flag; mTOP6BL; not shown: His, N-terminal, kept; Flag, C-terminal, kept

Legend:
[1] = molecular target: T1, MBP-tagged Mus musculus SPO11 (Mus musculus, UniProt Q9WTK8 1-396); experiment: SEC-MALS; co-expressed and co-purified MBP–SPO11 and His–Flag TOP6BL complex (Ni-NTA, amylose, Superdex 200); Superdex 200 increase 10/300 GL; 25 mM HEPES-NaOH pH 7.5, 500 mM NaCl, 10% glycerol, 5 mM EDTA, 2 mM DTT; conditions: both partners purified
T1 construct: SPO11, Mus musculus; expected molecular mass of MBP–SPO11 87.4 kDa; active-site tyrosines Y137 and Y138; also called MBP–SPO11; mouse SPO11; source: baculovirus-infected Sf9 insect cells, purified (amylose, Superdex 200, cation exchange); for the complex co-expressed with TOP6BL and purified (Ni-NTA, amylose, Superdex 200); not shown: MBP, N-terminal, kept
T1 sequence (looked up): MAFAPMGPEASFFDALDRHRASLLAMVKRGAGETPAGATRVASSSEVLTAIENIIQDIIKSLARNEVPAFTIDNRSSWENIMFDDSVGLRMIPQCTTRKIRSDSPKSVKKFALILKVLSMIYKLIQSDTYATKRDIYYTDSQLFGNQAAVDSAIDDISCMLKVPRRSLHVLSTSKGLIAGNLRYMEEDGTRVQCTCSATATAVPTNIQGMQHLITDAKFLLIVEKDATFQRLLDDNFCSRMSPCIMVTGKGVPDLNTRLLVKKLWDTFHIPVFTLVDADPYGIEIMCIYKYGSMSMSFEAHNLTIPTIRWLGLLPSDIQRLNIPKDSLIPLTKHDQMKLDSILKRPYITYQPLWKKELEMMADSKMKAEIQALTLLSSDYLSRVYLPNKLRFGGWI

MBP-SPO11;TOP6BL = molecular target: T2, MBP-SPO11;TOP6BL (Mus musculus;Mus musculus, UniProt Q9WTK8;J3QMY9 1-396;1-579, |); experiment: EMSA; 5 mM EDTA, 0.1 nM DNA; EMSA: 25 mM Tris-HCl pH 7.5, 7.5% glycerol, 50 mM NaCl, 2 mM DTT, 5 mM EDTA, 1 mg/ml BSA, 37 C, 30 min; 0.1 nM labelled hairpin or 100 ng plasmid in 20 µl; conditions: protein: recombinant;recombinant; tags: MBP;His-Flag; copies: 1;1; label: 5' 32P; hairpin, 2-nt 5' overhang
T2 sequence 1: T1 sequence (looked up)
T2 sequence 2: B1 chain

Row | Binder | stoichiometry N [1] | binding result (MBP-SPO11;TOP6BL)
1 | B1 | 1 | 
2 | TAGCAATGTAATCGTCTATGACGTTAACGTCATAGACGATTACATTGC (structured_DNA) [cb957 hairpin, 25 bp, 2-nt 5' overhang] |  | binds
